According to the supplement of paper PMC10567573:

B1: CLINT1 (parent)
chain: VVTSAREHIYDLRSLENYHFVDEH
B2: PPEF2 (parent)
chain: AFKAAALIQRWYRRYVARLEMRRR

Variants of: B1
Assay: protein stability index of a GFP-peptide fusion (GPS, HEK-293T) (PSI 1-6); higher = more stable
Settings: c terminus: a fixed tail appended
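Also: lentivirally expressed fusions sorted by FACS into six bins by GFP to DsRed ratio, PSI derived from sequencing read proportions per bin multiplied by bin number.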

Protein stability index of substitutions, site by site:
R6: Q 3.4 | I 1.84 | H 3.07 | V 2.31 | M 2.33 | C 2.91 | W 3.17 | E 3.87 | L 1.75 | S 3.93 | N 3.14 | T 2.75 | D 3.63 | G 3.04 | P 3.08 | K 3.48 | Y 2.35 | A 2.45 | F 1.55
T3: P 2.99 | K 3.11 | A 2.62 | S 2.89 | L 2.32 | H 2.48 | W 2.31 | C 2.29 | E 3.84 | M 2.1 | D 3.52 | I 2.04 | Y 2.24 | F 1.98 | R 3.09 | Q 3.25 | N 2.8 | V 2.07 | G 3.78
I9: Y 2.15 | E 3.62 | H 3.24 | R 3.66 | F 2.61 | P 3.59 | K 3.48 | L 2.83 | V 3.16 | A 2.98 | S 4.07 | G 3.83 | W 2.21 | M 3.06 | D 3.54 | N 4.5 | T 3.31 | Q 4.09 | C 2.83
Y10: E 4.17 | M 3.01 | A 3.84 | G 3.91 | R 3.78 | W 2.06 | S 3.37 | I 2.32 | H 2.9 | D 3.94 | N 3.71 | T 3.8 | L 2.71 | F 2.42 | P 4.21 | V 2.67 | Q 3.75 | C 3.66 | K 3.64
H8: K 2.45 | R 2.61 | Q 3.16 | Y 1.89 | F 1.9 | I 2.65 | N 2.83 | D 3.48 | A 2.52 | L 2.29 | T 2.91 | G 3.13 | V 2.22 | P 3.21 | W 2.12 | M 2.33 | S 3.31 | E 2.99 | C 2.1
V2: K 3.01 | H 3.44 | I 2.3 | N 3.62 | R 3.13 | G 3.34 | Q 3.53 | E 3.67 | Y 2.67 | D 4.26 | A 3.34 | S 3.12 | C 2.9 | L 3.23 | T 3.24 | W 2.38 | F 2.56 | M 3.2 | P 4.19
R13: E 3.73 | D 3.59 | F 1.73 | S 3.18 | L 1.97 | P 3.58 | M 2.9 | Q 3.06 | I 2.49 | A 3.55 | T 3.35 | K 3.45 | G 2.7 | C 2.38 | N 3.35 | Y 1.95 | W 2.08 | V 2.86 | H 2.67
S14: N 3.07 | F 2.57 | Q 2.31 | L 2.72 | R 2.44 | W 2.2 | I 2.15 | Y 2.02 | T 2.63 | K 2.69 | D 3.24 | P 2.24 | E 2.87 | G 3.45 | H 2.25 | C 2.24 | A 3.52 | V 2.11 | M 2.49
A5: P 3.35 | C 2.08 | F 2.53 | W 2.16 | G 3.15 | L 1.97 | D 3.53 | Y 2.24 | S 3.15 | R 2.67 | H 2.83 | K 2.36 | I 3.23 | T 2.98 | N 2.92 | V 2.24 | M 2.57 | E 3.81 | Q 3.71
V1: G 3.67 | A 3.89 | M 2.88 | T 3.63 | L 2.62 | F 1.79 | D 4.06 | C 2.54 | K 3.45 | Q 3.5 | P 3.5 | E 3.96 | N 3.8 | S 3.68 | I 2.67 | H 3.35 | R 2.92 | Y 1.5 | W 2.47
S4: E 3.04 | D 3.82 | P 3.4 | K 2.52 | T 3.18 | F 2.03 | N 2.84 | A 2.41 | G 2.73 | M 2.24 | C 1.64 | L 1.95 | I 2.1 | Q 2.91 | R 2.65 | V 2.47 | H 2.82 | W 2.48 | Y 1.48
L15: C 3.05 | A 3.32
D11: I 2.83 | M 2.62 | K 2.13 | V 2.89 | P 2.56 | R 2.62 | N 2.63 | Q 2.54 | T 2.17 | E 2.38 | S 2.64 | H 2.3 | C 2.4 | G 2.61 | L 2.44 | A 2.79 | W 2.13 | F 1.25 | Y 2.02
E7: M 1.39 | V 2.26 | R 2.07 | W 2.44 | Y 2.57 | S 2.4 | N 2.64 | K 2.77 | P 2.44 | D 2.29 | F 1.9 | H 2.17 | Q 1.85 | A 2.41 | C 1.86 | G 1.73 | L 2.3 | T 2.73
L12: A 3.42 | S 3.13 | H 3.32 | N 3.78 | Y 2.4 | F 2.61 | I 2.89 | G 3.78 | R 3.6 | D 4.08 | W 2.7 | C 2.61 | V 2.7 | M 3.39 | P 3.21 | E 4.03 | K 3.78 | T 3.99 | Q 4.09

Variants of: B2
Assay: as above
Settings: c terminus: a fixed tail appended

Protein stability index, by site and new letter:
E20: V 2.32 | T 2.65 | S 3.65 | W 4.21 | Y 3.25
R22: I 1.89 | V 1.66 | S 2.68 | Q 2.74 | Y 2.42 | L 3.12 | P 1.52 | T 3.82 | M 1.75 | W 2.52 | C 2.01 | D 2.24 | F 2.32 | N 3.83
M21: A 2.44 | E 4.73 | F 3.32 | P 2.18 | K 2.69 | R 2.36 | I 3.54 | D 2.98 | N 3.3 | V 3.7 | T 3.06 | L 3.39 | S 2.11 | C 3.34 | H 3.83 | Y 3.42 | Q 4.15
R23: E 2.44 | Y 1.58 | H 2.26 | I 2.13 | C 3.14 | M 1.94 | G 2.61 | A 2.81 | K 3.58 | L 2.48 | S 1.65 | W 1.98 | P 2.36 | T 2.25
R24: P 2.39 | Y 2.87 | E 3 | C 1.97 | T 2.48 | Q 3.32 | W 1.99 | S 2.63 | V 2.34 | F 1.81 | K 2.75 | H 3.78 | G 3.09 | L 2.9 | A 3.72 | N 3.62 | M 2.45
